The text below walks through data of patent publication US4978608.

The subject of data set [1] is single-stranded DNA binding protein (SSB, BP), immobilized (Escherichia coli). The settings on record: BP 0.2 mg/ml on Immobilon membrane; 10-1000 pg DNA in 10 mg/ml BSA; 80% captured with BP at 1 mg/ml.
Data set [2] shares this test system. The settings on record: BP 50 ug/ml adsorbed on nitrocellulose, BSA blocked; sample in 10 mg/ml BSA.

Where two headings read alike, the source gives them in different places.

As to 32P-labeled single-stranded DNA, the binding signal came to 70 % captured in data set [1] and 36 % captured in data set [2].
